{"source": "the nanobody polyreactivity screen of Harvey et al. (2022)"}
{"experiment": "yeast display, Sf9 membrane polyspecificity reagent, FACS + sequencing; frameworks hold sequencing errors", "in_short": "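In a synthetic yeast display library (Saccharomyces cerevisiae BJ5465), nanobody expression was induced with galactose for 36–48 hours. FACS gates were set low and high (top ~1%) using anti-HA fluorescence for expression and streptavidin fluorescence for binding of the Sf9 membrane reagent. Each polyreactivity label is drawn from the gate of origin.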"}
{"sequence": "QVQLVESGGGLVQAGGSLRLSCAASGFTFKYYVMGSYRQAPGKERFVAAITGSGASTYYADSVKGRFTISRDNAKNTVFLQMNSLKPEETAVYYCNADYYAGRYRYDYWGQGTQVTVSS", "polyreactivity (PSR sort gate)": "high polyreactivity"}
{"sequence": "QVQLVESGGGLVQAGGSLRLSCAASGFTFLAYAMGWYRQAPGQERELVAAINSSDGTTHYADSVKGRFTISRDTAKNTVYLQMNSLKPEDTAVYYCAVSQVRTGEGYHYWGQGTQVTVSS", "polyreactivity (PSR sort gate)": "low polyreactivity"}
{"sequence": "QVQLVESGGGLVQAGGSLRLSCAASGFTFLRYAMGWYRQAPGKERELVAAISTSGGRTYYADSVKGRFTISRDNAKNTVYLQMNSLKPEDTAVYYCNAAGGYRTSPSDYWGQGTQVTVSS", "polyreactivity (PSR sort gate)": "high polyreactivity"}
{"sequence": "QVQLVESGGGLVQAGGSLRLSCAASGFTFLSNAMGWYRQAPVKERELVAGISWDAGSTNYADSVKGRVTISRDNAKNTVYLQMNSLKPEDTAVYYCNADDSTGSRFYIEYDYWGQGTQVTVSS", "polyreactivity (PSR sort gate)": "low polyreactivity"}
{"sequence": "QVQLVESGGGLVQAGGSLRLSCAASGFTFLVYAMGWYRQAPGKERELVAAITWSGDSTYYADSVKGRFTISRDNAKNTVYLQMNSLKPEDTAVYYCAAAYRYGTLYYYWGQGTQVTVSS", "polyreactivity (PSR sort gate)": "low polyreactivity"}
{"sequence": "QVQLVESGGGLVQAGGSLRLSCAASGFTFLWNAMGWYRQAPGKERELVAAINGNSGNTYYADSVKGRFTISRDNAKNTVYLQMNSLKPEDTAVYYCARRGGVRGYYGGRRSKMDYWGQGTQVTVSS", "polyreactivity (PSR sort gate)": "low polyreactivity"}
{"sequence": "QVQLVESGGGLVQAGGSLRLSCAASGFTFLYNAMGWSRQAPGKERELVASINSGGSTNYADSVKGRFTISRDNAKNTVYLQMNSLKPEDTAVYYFNAKRHVRKGDYWGQGTQVTVSS", "polyreactivity (PSR sort gate)": "low polyreactivity"}
{"sequence": "QVQLVESGGGLVQAGGSLRLSCAASGFTFLYNARGWYIQAPGKERELVASINSGGSTNYADSVKGRFTISRDNAKNTVYLQKNSLKPEDTAVYYWNAKRHVRKGDYWGQGTQVTVSS", "polyreactivity (PSR sort gate)": "low polyreactivity"}
{"sequence": "QVQLVESGGGLVQAGGSLRLSCAASGFTFNANAMGWYRQAPGKERELVSVITRSGGRTYYADSVKGGFTISRDTAKNTVYLQMNSLKPEDSAVYYCATEGPSRVYQGTDSASDYWGQGTQVTVSS", "polyreactivity (PSR sort gate)": "high polyreactivity"}
{"sequence": "QVQLVESGGGLVQAGGSLRLSCAASGFTFNAYAMGWYRQAPGKERELVAAINVSGGITYYADSVKGRFTISRDNAKNTVYLQMNSLKPEDTAVYYCARDSYYSQVYRRGYSVPWRLDYWGQGTQVTVSS", "polyreactivity (PSR sort gate)": "low polyreactivity"}
{"sequence": "QVQLVESGGGLVQAGGSLRLSCAASGFTFNDYAMGWYRQAPGKERELVAAIDWSGGRTYYADSVKGRFTISRDNAKNTVYLQLNSLKPEDTAVDYCAVEDLSHAYVQHYRYGYGYWGQGTQVTVSS", "polyreactivity (PSR sort gate)": "low polyreactivity"}
{"sequence": "QVQLVESGGGLVQAGGSLRLSCAASGFTFNFYAMGWYRQAPGKESELVASITSSGARTYYADSVKGRFTISSDNPKNTVYLQMNSLKPEDTAVYYCAARVYRYSASRAYDYWGQGTQVTVSS", "polyreactivity (PSR sort gate)": "high polyreactivity"}
{"sequence": "QVQLVESGGGLVQAGGSLRLSCAASGFTFNFYTMGWYRQAPGKERELVAAITWSGGSTYYADSVKGRFTISRDNAKNTVYLQLNSLKPEDTAVYYCAATQQSRDRRFNYWGQGTQVTVSS", "polyreactivity (PSR sort gate)": "high polyreactivity"}
{"sequence": "QVQLVESGGGLVQAGGSLRLSCAASGFTFNGYAMGWYRQAPGHERELVAGITRRGGITYYADSVKGRFTISRDNAKNTVYLPMNSLKPEDTAVYYCARDYIGHALIHHASLYYYWGQGTQVTVSS", "polyreactivity (PSR sort gate)": "high polyreactivity"}
{"sequence": "QVQLVESGGGLVQAGGSLRLSCAASGFTFNIKTKGSDRQAPGKDRELVAAITSGGNSSYADSVKGRLTISRDNAKNTVYLQMNRVKPEDTAVYYCATEDFRTDTGMYYWGQGTQVTVSS", "polyreactivity (PSR sort gate)": "low polyreactivity"}
{"sequence": "QVQLVESGGGLVQAGGSLRLSCAASGFTFNRYAMGWYRQAPGKERELVAAIRSRGGSTYYADSVKGRFTISRDNAKNTVYLQMNSLKPEDTAVYYCAARSFQFYRFDYWGQGTQVTVSS", "polyreactivity (PSR sort gate)": "high polyreactivity"}
{"sequence": "QVQLVESGGGLVQAGGSLRLSCAASGFTFNRYAMGWYRQAPGKERELVAAISRGGGSTYYADSVKGRFTISRDNAKNTVYLQMNSLKPEDTAVYYCAADTRVRTCRYGFWGQGTQVNVSS", "polyreactivity (PSR sort gate)": "high polyreactivity"}
{"sequence": "QVQLVESGGGLVQAGGSLRLSCAASGFTFNRYVMGWYRQAPGKERELVAAISGGGARTYYADSVKGRFTISRDNAKNTVYLQMNSLKPEDTAVYYCNARYKSHSVSDYYYWGQGTQVTVSS", "polyreactivity (PSR sort gate)": "high polyreactivity"}
{"sequence": "QVQLVESGGGLVQAGGSLRLSCAASGFTFNYYAMGWYRQAPGKERELVAAIDSGGNTYYADSVKGRFTISRDNAKNTVYLQMNRLKPEDTAVYYCAAYRDYQYDYWGQGTQVTVSS", "polyreactivity (PSR sort gate)": "low polyreactivity"}
{"sequence": "QVQLVESGGGLVQAGGSLRLSCAASGFTFNYYAMGWYRQAPGKERELVAGITRSGVSTNYADSVKGRFTISRDNAKNTVYLQMNSLKPEDTAGYYSAREEGRRYRGWPYVFAPQHDYWGQGTQVTVSS", "polyreactivity (PSR sort gate)": "high polyreactivity"}
{"sequence": "QVQLVESGGGLVQAGGSLRLSCAASGFTFPEYAMGWYRQAPGKERELVAAISSGDSTNYADSVKGRLTISRDNAKNTVYLQMNILKPEDTAVDYCAADYYDYYYEYEYWGQGTQVTVSS", "polyreactivity (PSR sort gate)": "low polyreactivity"}
{"sequence": "QVQLVESGGGLVQAGGSLRLSCAASGFTFPGNAMGWYRHPPGKERELVAAISSTDRTTNADSVKGRFTISRDNAKNTGYLQMNSLKPEDTAVYYCYTATRRRPRGYWGQGTQVTVSS", "polyreactivity (PSR sort gate)": "high polyreactivity"}
{"sequence": "QVQLVESGGGLVQAGGSLRLSCAASGFTFPGNAMGWYRQAPGKEREFVAAITRSSGSTSYADSVKGRFTISRDNAKNTVYLQMNSLKPEDTAVYRDYWGQGTQVTVSS", "polyreactivity (PSR sort gate)": "low polyreactivity"}
{"sequence": "QVQLVESGGGLVQAGGSLRLSCAASGFTFPKYAMGWYRQAPGKERELVAAITWSGGSTRYADSVKGRFTISRDNAKNTVYLQMNSLKPEDTAVYYCAADRRSGYSRYKYGRGDYWGQGTQVTVSS", "polyreactivity (PSR sort gate)": "high polyreactivity"}
{"sequence": "QVQLVESGGGLVQAGGSLRLSCAASGFTFPLNAMGWYRQAPGKERELVAAISGSGGSTYYADSVKGRFTISRDNAKNTVYLQMNSLKPEDTAVYYCAAGIYYWGQGTQVTVSS", "polyreactivity (PSR sort gate)": "low polyreactivity"}
{"sequence": "QVQLVESGGGLVQAGGSLRLSCAASGFTFPLNARGWYRQAPGKERELVAAITNGGTTYYADSVKGRFTISRDNAKNTVYLQMHSLKPEDTAVYYCAAYTYRYGSFKYGYWGQGTQVTVSS", "polyreactivity (PSR sort gate)": "low polyreactivity"}
{"sequence": "QVQLVESGGGLVQAGGSLRLSCAASGFTFPQYVMGGYRQAPGKERELVAAISSRGGRTYYADSVKGRFTISRDNAKNTVYLQMNSLIPEDTAVYYCAKGKRDSRAFDYWGQGTQVTVSS", "polyreactivity (PSR sort gate)": "high polyreactivity"}
{"sequence": "QVQLVESGGGLVQAGGSLRLSCAASGFTFPRNVMGWYRQAPGKERELVAAISRSGSRTSYADSVKGRFTISRDNAKNTVYLQMNSVKPEDTAVYYCATSSGVGGYAAYYYWGQGTQVTVSS", "polyreactivity (PSR sort gate)": "high polyreactivity"}
{"sequence": "QVQLVESGGGLVQAGGSLRLSCAASGFTFPRYAMGWYRQAPGKERELVAAISTSGDSTYYADSVKGRFTISRDNAKNTVYLQMNSLKPEDTAVYYCAARVVRGRYGYWGQGTQVTVSS", "polyreactivity (PSR sort gate)": "high polyreactivity"}
{"sequence": "QVQLVESGGGLVQAGGSLRLSCAASGFTFPSYAMGWYRQAPGKDREFVAGITKGGGNTYYADSVKGRFTISRDNAKNNVYLQMNSLKPEDTAVYYCAKCPLPRAGVKFDYWGQGTQVTVSS", "polyreactivity (PSR sort gate)": "low polyreactivity"}
{"sequence": "QVQLVESGGGLVQAGGSLRLSCAASGFTFPTYAMGWYRPAPGKERELVAAITRGGSTYYADSVKGRFTISRDNAKNTVYLQMNSLKPEDTAVYYCAGDDPWYEEDYWGQGTQVTVSS", "polyreactivity (PSR sort gate)": "low polyreactivity"}
{"sequence": "QVQLVESGGGLVQAGGSLRLSCAASGFTFPVYAMGWYRQAPGKEREFVAAITKSGGGTYYADSVKGRFTISRDNAKNTVYLQMNSLKPVDTAVYYCAKASRRFLTLGYDYWGQGTQVTVSS", "polyreactivity (PSR sort gate)": "high polyreactivity"}
{"sequence": "QVQLVESGGGLVQAGGSLRLSCAASGFTFPVYAMGWYRQAPGKERELVAAISRRGGRTYYADSVKGRFTISRDNAKNTVYLQMNSLKPEDTAVYYCAAQSVPYAYRLASYDYWGQGTQVTVSS", "polyreactivity (PSR sort gate)": "high polyreactivity"}
{"sequence": "QVQLVESGGGLVQAGGSLRLSCAASGFTFPVYAMGWYRQAPGKERELVAAITYNGGSTYDADSVKGRFTISRDNAKHTVYFQMNSLKPEDTAVSYCAAEVFLRSLGYWYDYWGQGTQVTVSS", "polyreactivity (PSR sort gate)": "high polyreactivity"}
{"sequence": "QVQLVESGGGLVQAGGSLRLSCAASGFTFPWYAMGWYIQAPGKERELVASISYRGDSTYYADSVKGRFTISRDNAKNTVYLQMNSLKPEDTAVYYCNKRLASYYLPGFDYWGQGTQVTVSS", "polyreactivity (PSR sort gate)": "low polyreactivity"}
{"sequence": "QVQLVESGGGLVQAGGSLRLSCAASGFTFPWYAMGWYRQAPGKERELVAAITSGGGSTYYADSVKGRFTISRYNAKNTVYLQMNSLKPEDTAVYYCATSYTKQGFRYYYWGQGTQVTVSS", "polyreactivity (PSR sort gate)": "high polyreactivity"}
{"sequence": "QVQLVESGGGLVQAGGSLRLSCAASGFTFPYNDMGWYIQARGKEREFVAAISRSGTRTYYADSVKGRFTISRDNAKHTVYLQMNSLKPEDTAVYYCNARAAGYARLGPGFDYWGQGTQVTVSS", "polyreactivity (PSR sort gate)": "high polyreactivity"}
{"sequence": "QVQLVESGGGLVQAGGSLRLSCAASGFTFPYYAMAWYRQAPGKEREVVAAISFSGGRTYYADSVMGRFTISRDNAKYTVYLQMNSLKPEDTAVYYCASYDYRNTGGGGYYYWGQGTQVTVSS", "polyreactivity (PSR sort gate)": "high polyreactivity"}
{"sequence": "QVQLVESGGGLVQAGGSLRLSCAASGFTFPYYAMGWYRQAPGKEMELVAVISGSGTRTNYADSVKGRFTISRDNAKNTVYLQMNSLKPEDTEVYYCAAYYTYLHYIYDYWGQGTQVTVSS", "polyreactivity (PSR sort gate)": "high polyreactivity"}
{"sequence": "QVQLVESGGGLVQAGGSLRLSCAASGFTFPYYAMGWYRQAPGKERDLVARISSGGSTNYADSVKGRFTISRDNAKNTVYLQMNSLKPEDTAVYYCNKVRTVTTYEYWGQGTQVTVSS", "polyreactivity (PSR sort gate)": "high polyreactivity"}
{"sequence": "QVQLVESGGGLVQAGGSLRLSCAASGFTFPYYAMGWYRQAPGKERELVAAISQGGASTRYADSVKGRFTISRDNAKNTVYLQMNSLKPEDTAVYYCAAKSRHFWMDYWGQGTQVTVSS", "polyreactivity (PSR sort gate)": "high polyreactivity"}
{"sequence": "QVQLVESGGGLVQAGGSLRLSCAASGFTFPYYAMGWYRQAPGKERELVAAISRSGTSTNYADSVKGRFTISRDNAKNTVYLQMNSLKPEDTAVYYCATARRQGKVIQYYYWGQGTQVTVSS", "polyreactivity (PSR sort gate)": "high polyreactivity"}
{"sequence": "QVQLVESGGGLVQAGGSLRLSCAASGFTFPYYAMGWYRQAPGKERELVAAISSGGRTNYADSVKGRFTISRDNAKNTVYLQMNSLKPEDTAVYYCATRSYVFAWEFNYWGQGTQVTVSS", "polyreactivity (PSR sort gate)": "high polyreactivity"}
